Test results published in patent US20080274950A1 (BABRAHAM INSTITUTE, published 2008).
One block for each binder: values may come before it.

Legend:
[1] = biological target: T1, human N-cadherin naturally expressed on DX3 melanoma cells (human, UniProt P19022 160-906); experiment: adhesion of DX3 cells to coated monomeric N-cadherin-Fc, oxidising buffer
T1 construct: also called DX3 Cells; N-cadherin+ve DX3 melanoma cells
T1 sequence: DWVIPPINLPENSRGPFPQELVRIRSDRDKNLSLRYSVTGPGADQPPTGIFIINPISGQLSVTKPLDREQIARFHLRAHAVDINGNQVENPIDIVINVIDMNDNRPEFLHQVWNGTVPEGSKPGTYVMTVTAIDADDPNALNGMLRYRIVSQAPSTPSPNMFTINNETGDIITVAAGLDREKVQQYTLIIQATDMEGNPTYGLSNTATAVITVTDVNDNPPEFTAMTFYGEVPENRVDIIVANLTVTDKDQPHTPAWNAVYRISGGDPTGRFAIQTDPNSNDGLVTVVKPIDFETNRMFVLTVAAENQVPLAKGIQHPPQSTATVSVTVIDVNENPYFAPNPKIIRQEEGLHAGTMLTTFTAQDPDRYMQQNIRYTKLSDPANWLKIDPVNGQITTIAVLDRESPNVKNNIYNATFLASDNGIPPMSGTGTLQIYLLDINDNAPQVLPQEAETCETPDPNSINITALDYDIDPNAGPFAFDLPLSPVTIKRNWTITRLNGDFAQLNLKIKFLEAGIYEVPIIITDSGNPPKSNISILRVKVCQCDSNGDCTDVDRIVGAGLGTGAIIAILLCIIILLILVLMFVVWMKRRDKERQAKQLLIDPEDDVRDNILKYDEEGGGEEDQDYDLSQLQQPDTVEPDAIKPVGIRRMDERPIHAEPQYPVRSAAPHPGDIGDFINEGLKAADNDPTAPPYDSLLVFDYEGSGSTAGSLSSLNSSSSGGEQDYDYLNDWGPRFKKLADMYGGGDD
Method: Monomeric or dimeric N-cadherin-Fc fusion protein in Cos cell supernatants was added as described for the ELISA assay. DX3 Cells, a human melanoma cell line which expresses N-cadherin, were dissociated with Cell Dissociation Solution (Sigma, code C5789), resuspended in HBSS with 2% FCS and assessed for adhesion to wild type or mutant N-cadherin-Fc as previously described (Corps et al., 2001). Microscopic examination established that the cells were present as a single cell suspension as they settled onto the plate. For assays conducted in reducing conditions, 10 mM DTT was present during the adhesion and washing steps. Determinations were conducted in triplicate and results are presented as mean +/−sem.

[2] = biological target: the molecule itself; experiment: disulphide-bonded cis-dimers in the coating layer; non-reducing SDS-PAGE and immunoblot
Method: Monomeric N-cadherin-Fc (1 μg/ml) bearing the three alternative cysteine point mutations, D1C, R25C or D27C, was immobilised on 96-well plates with goat antihuman IgG Fe as previously described for E-cadherin-Fc (Corps et al., 2001). Unbound cadherin was removed by washing with HBSS, 0.1% BSA, followed by HBSS alone. The plates were not blocked with additional protein. K562 transfectants expressing N-cadherin bearing complementary or non-complementary point mutations (6×10^4 Cells in 100 μl HBSS containing 10 mM DTT), in single cell suspension, were added to the coated wells which contained 100 μl HBSS. The final concentration of DTT was therefore 5 mM DTT during the adhesion stage. The cells were allowed to settle for 10 min at room temperature before incubation at 37° C. for 30 minutes to complete adhesion. […] Adherent cells from a pool of 4 wells for each experimental condition were then solubilised in sample buffer for SDS-PAGE and analysed on NuPAGE Novex gradient gels, 3-8% or 4-12%, (Invitrogen), under nonreducing or reducing conditions. Cellular cadherin was detected by immunoblotting using rabbit pan anti-cadherin antiserum specific for the cytoplasmic domain. Alternatively, N-cadherin-Fc fusion protein was detected with rabbit anti-human IgG, Fc-specific (Pierce, code 31142). […]

[3] = biological target: T2, full length chicken N-cadherin with the N-terminus extended by two glycine residues (GG) expressed on K562 … (chicken, UniProt P10288 165-912); experiment: adhesion of K562 transfectants to N-cadherin Fc coated at 1 µg/ml
T2 construct: whole, on cells; also called cells expressing the GG N-terminal extension mutant; K562 GG
T2 sequence: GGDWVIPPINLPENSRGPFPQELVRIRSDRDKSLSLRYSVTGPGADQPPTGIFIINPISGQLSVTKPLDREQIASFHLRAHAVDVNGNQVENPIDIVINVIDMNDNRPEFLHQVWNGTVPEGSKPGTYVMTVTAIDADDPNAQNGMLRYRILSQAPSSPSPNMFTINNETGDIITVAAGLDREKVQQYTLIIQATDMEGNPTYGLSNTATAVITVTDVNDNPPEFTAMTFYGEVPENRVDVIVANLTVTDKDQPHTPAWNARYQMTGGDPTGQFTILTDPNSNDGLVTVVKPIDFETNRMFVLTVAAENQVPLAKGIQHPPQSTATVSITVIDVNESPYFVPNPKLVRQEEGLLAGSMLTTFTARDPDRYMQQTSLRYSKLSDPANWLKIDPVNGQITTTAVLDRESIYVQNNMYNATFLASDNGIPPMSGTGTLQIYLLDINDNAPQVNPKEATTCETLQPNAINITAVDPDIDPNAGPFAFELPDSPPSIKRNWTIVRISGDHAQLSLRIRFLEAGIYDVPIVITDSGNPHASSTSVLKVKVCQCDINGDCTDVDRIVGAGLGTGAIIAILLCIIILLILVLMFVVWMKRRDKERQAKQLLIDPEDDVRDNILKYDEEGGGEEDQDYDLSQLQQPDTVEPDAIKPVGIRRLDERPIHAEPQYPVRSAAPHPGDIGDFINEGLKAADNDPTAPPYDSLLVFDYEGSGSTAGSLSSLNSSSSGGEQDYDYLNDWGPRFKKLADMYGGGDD
Method: (§1) Adhesion tests were conducted substantially as described in Example 1. Briefly, K562 Cells or L cells transfected with wild type or mutant N-cadherin were allowed to settle for 45 minutes at 37° C. onto N-cadherin Fc fusion proteins coated at 1 μg/ml to a 96 well plate. Non-adherent cells were then washed off and residual adherent cells were quantitated by measuring acid phosphatase activity. Assays were conducted in quadruplicate and results are expressed as % cells adhering +/−SEM.

[4] = biological target: T3, full length chicken N-cadherin with the mutation E89A expressed on K562 cells (chicken, UniProt P10288 165-912, E89A); experiment: adhesion of K562 transfectants to coated N-cadherin Fc
T3 construct: whole, on cells; also called cells expressing the E89A mutation; K562 E89A
T3 sequence (looked up): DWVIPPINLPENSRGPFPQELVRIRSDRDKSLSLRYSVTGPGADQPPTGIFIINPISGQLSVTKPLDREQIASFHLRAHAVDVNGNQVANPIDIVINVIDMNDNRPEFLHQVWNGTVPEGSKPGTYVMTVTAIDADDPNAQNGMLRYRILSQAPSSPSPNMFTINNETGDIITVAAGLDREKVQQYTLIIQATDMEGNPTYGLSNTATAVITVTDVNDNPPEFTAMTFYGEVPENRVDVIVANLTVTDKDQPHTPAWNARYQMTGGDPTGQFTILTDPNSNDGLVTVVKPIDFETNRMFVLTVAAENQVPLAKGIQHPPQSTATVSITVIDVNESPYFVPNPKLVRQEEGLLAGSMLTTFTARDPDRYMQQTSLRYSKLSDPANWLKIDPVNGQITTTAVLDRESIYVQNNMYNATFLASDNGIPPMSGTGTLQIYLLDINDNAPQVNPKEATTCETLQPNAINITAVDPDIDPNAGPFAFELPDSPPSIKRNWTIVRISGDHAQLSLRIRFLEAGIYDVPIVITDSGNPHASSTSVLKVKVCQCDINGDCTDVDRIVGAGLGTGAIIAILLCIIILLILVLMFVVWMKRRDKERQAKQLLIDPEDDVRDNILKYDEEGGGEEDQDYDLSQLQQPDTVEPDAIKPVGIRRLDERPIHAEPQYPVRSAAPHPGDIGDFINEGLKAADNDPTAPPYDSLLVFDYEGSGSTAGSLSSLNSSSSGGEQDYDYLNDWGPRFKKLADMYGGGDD
Method: as §1

[5] = biological target: T3, full length chicken N-cadherin with the …; experiment: adhesion of K562 transfectants to N-cadherin Fc coated at 1 µg/ml; reversed by chelation of calcium
Method: as §1

[6] = biological target: T2, full length chicken N-cadherin with the …; experiment: adhesion of K562 transfectants to coated N-cadherin Fc
Method: as §1

binding result [1]: binds
B1: monomeric chicken N-cadherin-Fc with the mutation D1C (Fc fusion, UniProt P10288 165-728, looked up)
chain: CWVIPPINLPENSRGPFPQELVRIRSDRDKSLSLRYSVTGPGADQPPTGIFIINPISGQLSVTKPLDREQIASFHLRAHAVDVNGNQVENPIDIVINVIDMNDNRPEFLHQVWNGTVPEGSKPGTYVMTVTAIDADDPNAQNGMLRYRILSQAPSSPSPNMFTINNETGDIITVAAGLDREKVQQYTLIIQATDMEGNPTYGLSNTATAVITVTDVNDNPPEFTAMTFYGEVPENRVDVIVANLTVTDKDQPHTPAWNARYQMTGGDPTGQFTILTDPNSNDGLVTVVKPIDFETNRMFVLTVAAENQVPLAKGIQHPPQSTATVSITVIDVNESPYFVPNPKLVRQEEGLLAGSMLTTFTARDPDRYMQQTSLRYSKLSDPANWLKIDPVNGQITTTAVLDRESIYVQNNMYNATFLASDNGIPPMSGTGTLQIYLLDINDNAPQVNPKEATTCETLQPNAINITAVDPDIDPNAGPFAFELPDSPPSIKRNWTIVRISGDHAQLSLRIRFLEAGIYDVPIVITDSGNPHASSTSVLKVKVCQCDINGDCTDVDRIVGAGLGT
notes: extracellular domain; not shown: hinge region, CH2 and CH3 domains of human IgG1 heavy chain (vector pIgSig)
binding result [2]: binds

binding result [3]: binds
B2: chicken N-cadherin Fc fusion protein with the mutation E89A (Fc fusion, UniProt P10288 165-728, looked up)
chain: DWVIPPINLPENSRGPFPQELVRIRSDRDKSLSLRYSVTGPGADQPPTGIFIINPISGQLSVTKPLDREQIASFHLRAHAVDVNGNQVANPIDIVINVIDMNDNRPEFLHQVWNGTVPEGSKPGTYVMTVTAIDADDPNAQNGMLRYRILSQAPSSPSPNMFTINNETGDIITVAAGLDREKVQQYTLIIQATDMEGNPTYGLSNTATAVITVTDVNDNPPEFTAMTFYGEVPENRVDVIVANLTVTDKDQPHTPAWNARYQMTGGDPTGQFTILTDPNSNDGLVTVVKPIDFETNRMFVLTVAAENQVPLAKGIQHPPQSTATVSITVIDVNESPYFVPNPKLVRQEEGLLAGSMLTTFTARDPDRYMQQTSLRYSKLSDPANWLKIDPVNGQITTTAVLDRESIYVQNNMYNATFLASDNGIPPMSGTGTLQIYLLDINDNAPQVNPKEATTCETLQPNAINITAVDPDIDPNAGPFAFELPDSPPSIKRNWTIVRISGDHAQLSLRIRFLEAGIYDVPIVITDSGNPHASSTSVLKVKVCQCDINGDCTDVDRIVGAGLGT
notes: extracellular domain; also called E89A mutant; E89A Fc fusion protein; not shown: hinge region, CH2 and CH3 domains of human IgG1 heavy chain (vector pIgSig)
binding result [4]: no binding (tested: Fc fusion protein coated at 1 µg/ml)

binding result [5]: binds
B3: chicken N-cadherin Fc fusion protein with the N-terminus extended by two glycine residues (GG) (Fc fusion)
chain: GGDWVIPPINLPENSRGPFPQELVRIRSDRDKSLSLRYSVTGPGADQPPTGIFIINPISGQLSVTKPLDREQIASFHLRAHAVDVNGNQVENPIDIVINVIDMNDNRPEFLHQVWNGTVPEGSKPGTYVMTVTAIDADDPNAQNGMLRYRILSQAPSSPSPNMFTINNETGDIITVAAGLDREKVQQYTLIIQATDMEGNPTYGLSNTATAVITVTDVNDNPPEFTAMTFYGEVPENRVDVIVANLTVTDKDQPHTPAWNARYQMTGGDPTGQFTILTDPNSNDGLVTVVKPIDFETNRMFVLTVAAENQVPLAKGIQHPPQSTATVSITVIDVNESPYFVPNPKLVRQEEGLLAGSMLTTFTARDPDRYMQQTSLRYSKLSDPANWLKIDPVNGQITTTAVLDRESIYVQNNMYNATFLASDNGIPPMSGTGTLQIYLLDINDNAPQVNPKEATTCETLQPNAINITAVDPDIDPNAGPFAFELPDSPPSIKRNWTIVRISGDHAQLSLRIRFLEAGIYDVPIVITDSGNPHASSTSVLKVKVCQCDINGDCTDVDRIVGAGLGTG
notes: extracellular domain; also called GG extension mutant; GG mutant; not shown: hinge region, CH2 and CH3 domains of human IgG1 heavy chain (vector pIgSig)
binding result [6]: no binding (tested: Fc fusion protein coated at 1 µg/ml)
